Reference: patent US20230355534A1, “METHOD TO ENCAPSULATE AN AQUEOUS SOLUTION COMPRISING A COMPOUND OF INTEREST IN A MATRIX” (SECOYA TECHNOLOGIES, priority 2020, published 2023)

Key:
[1] = Encapsulation efficiency by spectrophotometry of the second aqueous solution after separation of the particles; format: physicochemical; conditions: Example 1 particles (Eudragit S100 matrix, oleic acid shell); typical detection limit 2 w %
Procedure: The encapsulation efficiency has been measured through spectrophotometry measurement by means of a Thermoscientific Genesys 180 device. The encapsulation efficiency is measured by measuring the percentage of compound of interest in the second aqueous solution after separation of the obtained particles. The percentage is a weight percentage, i.e. the mass of compound in relation to the total mass of the second aqueous solution. Given the high mass of second aqueous solution in relation to the mass of the compound of interest, only significant amounts of compound of interest are detected. A typical detection limit is 2 w %. If no compound of interest is detected in the second aqueous solution after separation of the obtained particles, it means that no to very low quantities of compound of interest are present in the second aqueous solution, and that the encapsulation can be considered to have been efficient. Detection of the compound of interest indicates less efficient encapsulation. The larger the amount of compound of interest detected, the less efficient was the encapsulation.
For the measurement of the encapsulation efficiency, the protein pork haemoglobin was used as compound of interest for encapsulation.

[2] = Encapsulation yield by spectrophotometry after dissolution of the particles; format: physicochemical; conditions: Example 1 particles; percentage of compound initially used that is detected in the particles; upper limit of detection 98%
Procedure: A second evaluation method measures the encapsulation yield. The encapsulation yield is measured directly on the particles, and represents the percentage of the compound of interest initially used in the encapsulation method that is detected in the particles. The measurement is performed by spectrophotometry by means of a Thermoscientific Genesys 180 device after dissolution of the particles. Based on the detection limits of the device, the upper limit of encapsulation yield is noticed to be 98%, meaning that approximately 2% is not detected. This also means that an encapsulation yield of 98% indicates a very good encapsulation of the compound of interest.
For the measurement of the encapsulation yield, the protein pork haemoglobin was used as compound of interest for encapsulation. The encapsulation yield for pork haemoglobin was up to 98%, indicating a very high encapsulation yield.

Substance: pork haemoglobin
- encapsulation efficiency: compound of interest detected in the second aqueous solution after separation of the obtained particles [1]: No traces
- encapsulation yield [2]: up to 98%
